{"source": "the DeepSol protein solubility set", "data": [{"test": "soluble on expression in E. coli; label from the status in PepcDB or PDB records", "values": [{"sequence": "MPRRHSIVYAVEYDGDIYAITGITHETRNYLYKYIVKEDKWIELYMYFNHVGKTFVCSCGDYILIIADAKYEYYPKSNTWNLFDMSTRNIEYYDMFTKDETPKCN", "soluble on expression in E. coli": "not soluble"}, {"sequence": "MPRYCIVNADDFGYSKGVNYGILEAFQHGVVTSATLMANMPAAEHAARLAKEHPELGVGIHFVLTCGRPLADVPSLVNENGEFPRRGEALAGARRSDIERELAAQLERVFSLGLSPTHIDSHHHVHEHPNVFPVVEQLAERYRLPIRPVRTTRPHRLATVDVFFPDFYGDGLTKDHFLTLIDRIGDGQTAEVMCHPAYMDAPLAAGSSYCRQRIEELAVLTDPALSKEIAERGVQLITYREFYQL", "soluble on expression in E. coli": "not soluble"}, {"sequence": "MPSDAPIDFTGLIRASDLVVCGQATAEPLTLTEALMAQAADLPPFRLMVGPVFSDTFAAAPPNVSFVSYGVIGHARKLARAGRLDVIPSNYSAFCADFAAGRHRADVVLVQLAEAPDGRLSASLSCDYVIDAARRARLVIAEINPDAPFTYGAEWPGEVPIHIRVAARRKPVELPSGALDDVSRKIAANAAGLIADGATLQFGVGKIPDAILSSLVHARDLGIHSGLINDAVVELIERGVVTNARKGIDPGVTVTNQLIGTQRLYRFAHQNRSVRMQPAAYTHDHGVLGRINRLTAINSALQVGLDGSVNAETLNGVAIGAIGGQLDFVRGANASPGGRALIALPATAPDGSSRIVARVETVTTPRADVDVIVTEWGVAELRGCSLAERARQMIAIAAPEHRDRLAEQARTIALEHHHHHH", "soluble on expression in E. coli": "not soluble"}, {"sequence": "MPSDLIPLIELHQVSKTFGKPVAEHSLQGLLQRLHLTRPKPVTHAVDRVDLRIMRGEVVGLVGESGCGKSTLGRMVAGLLPVSSGVASVDGKPLDSLTTQERKALRLKVQMIFQDPSSSLNPRLRVDRIVGEGALLHGLTDRKGADDYVSAQLQRAGLNPQLRQRYPHQFSGGQRQRIGIARALAVQPELLVCDESVAALDVSIQAQILNLFMDLRDELGLTYLFISHDLGVVEHLCDRVVVMYLGRVVETASVDDLFARANHPYTQALLAQIPRFDIRSTRYDAIQGEIPSPLNPPTGCHFHPRCPHAMARCREEVPALREVSPNHQSACHLNDQR", "soluble on expression in E. coli": "not soluble"}, {"sequence": "MPSFDIVSEITLHEVRNAVENANRVLSTRYDFRGVEAVIELNEKNETIKITTESDFQLEQLIEILIGSCIKRGIEHSSLDIPAESEHHGKLYSKEIKLKQGIETEMAKKITKLVKDSKIKVQTQIQGEQVRVTGKSRDDLQAVIQLVKSAELGQPFQFNNFRD", "soluble on expression in E. coli": "soluble"}, {"sequence": "MPSKQDVLLLDYWDQWAEAYRINGKSINTVYRYKLFRKHLKSRFDGRKLNSIRPIEWQKFINDFAAGKDRKEKTTRKRPRERSKDIVTKMNSYVRGMVKAAINERILFSDFTFGTKTSGVRLEHHHHHH", "soluble on expression in E. coli": "not soluble"}, {"sequence": "MPSRAEDYEVLYTIGTGSYGRCQKIRRKSDGKILVWKELDYGSMTEAEKQMLVSEVNLLRELKHPNIVRYYDRIIDRTNTTLYIVMEYCEGGDLASVITKGTKERQYLDEEFVLRVMTQLTLALKECHRRSDGGHTVLHRDLKPANVFLDGKQNVKLGDFGLARILNHDTSFAKTFVGTPYYMSPEQMNRMSYNEKSDIWSLGCLLYELCALMPPFTAFSQKELAGKIREGKFRRIPYRYSDELNEIITRMLNLKDYHRPSVEEILENPLIADLVADEQRRNLERRGRQLGEPEKSQDSSPVLSELKLKEIQLQERERALKAREKRLEQKEQELCVRERLAEDKLARAENLLKSYSLLKERKFLSLASNPELLNLPSSVIKKKVHFSGESKENIMRSENSESQLTSKSKCKDLKKRLHAAQLRAQALSDIEKNYQLKSRQILGMR", "soluble on expression in E. coli": "soluble"}, {"sequence": "MPTPAYMRIEGEKQGLITAGTFTEDSVGNIYQEGHEDEVLVQGFEHQVLLPRDPQSGQPTGQRVHKPVRITKVFDKASPLMYNALTSGEKLPKVEIKWYRTSATGTQEHYFTTVLHDAIIVDITASMPNCQDPSQAHFTHLEDVFMTYRAIDWTHEVAGTSGNDDWRTAMKA", "soluble on expression in E. coli": "soluble"}, {"sequence": "MPTTRHYDIVIIGGGIQGAAVAQAAAALGYNVLVLEKTALAAGTSSRSSKLIHGGLRYLESGQFGLVWESLKERAALLRLAPSLVRLQPFHIPIYDQTSRDTLTIRAGLSLYALLAGLSKGAGFHSIPRRRWGELDGLSTRGLRHVFQYWDAQTDDQALTRAIMHSASSLGVELHCPAEFIHARISGEICEIEFLENNQAYQCTASSLVNAAGPWVSQVAERISPAPPAYPVELVQGTHLILEGSLDKGCYYLESPQDRRAIFALPWKQHILLGTTETVFEGAPDKALPLVSEENYLLGCFRYYFPDHGATVRERFTGLRVLPVSRNNPFGRSRETHLQCDSPESPRIVGIYGGKLTVCRATARKVLHTLRPSLPVRIPKADISQLTLKLPLEHHHHHH", "soluble on expression in E. coli": "soluble"}, {"sequence": "MPVGRREQIVDCRSVMGLGEGGGLAQRGTFAEALKNDVVVVAMSPGRRHITKPVCEITYGIREAGIQTSVLVLNAGSGIPHDAPRGALGSTFGIKPEEAEQINRHKLCVVHFGNVISHIVYKAGLLLKYVEIPTIIVCQAPVDMEDLAKYGIKTRDVMPLEPKTKGTVVDIVTGVIRGESCPQTKIDEVIRKIKLHLNLNLEHHHHHH", "soluble on expression in E. coli": "soluble"}, {"sequence": "MPVPDLFAEGLARGWKTYNGSRLDDDLELEADVVVVGTGAGGGTTAEILSAAGLKVLLVEEGPLKTSSDFKMQEADAYPELYQEGIGRMSKDGAITILQGRAVGGTTLINWTSSFRTPEPTLQHWAQVYGVKGHSAEDMAPWFEKMEQRLHVAPWALPPNANNDVIRLGCEKLGYHWKVIPRNVLGCWNLGYCGMGCPVNAKQSMLVTTIPATLDKGGELLYLARANRLLLDGDKVTGLECLGMDERCVAPNGRRIRVRARHYVLSGGGINTPAILLRSKAPDPSQRVGKRTFLHTVNFSAGLFDRVINPFYGAPQSIYSDHFQWDDGVTGRMSYKLEVPPLQPSLASVLLGGFGSDNALRMEQLPHTNMMLALLRDGFHPDSAEGSVGLRGDDTPVLDYRMTDYTWDGIRRAFHTMAEIQFAAGAREVRPVHSDARSAKNLQEARGIIDGLRLEIYRTRLGSAHVMGGCAMGEDPAVAVADSLGRHHHLRNLSIHDGSLFPTSIGANPQLSVYGLTAQLASALAERLARALEHHHHHH", "soluble on expression in E. coli": "not soluble"}, {"sequence": "MPVSPEREQALSEFVAAVQAREDVQSELNEITTLDQLKTIVDSIEPALTGAALIPFEQATSPPKITVDSGVLDKNIPWRLLRCPGGPLVLQMICTRVNFALWIESC", "soluble on expression in E. coli": "not soluble"}, {"sequence": "MPVTLSFGNHQNYTLNESRLAHLLSADKEKAIHMGGWDKVQDHFRAEKKDHALEVLHSIIHGQGRGEPGEMEVNVEDINKIYAFKRLQHLACPAHQDLFTIKMDASQTQFLLMVGDTVISQSNIKDILNISDDAVIESMSREERQLFLQICEVIGSKMTWHPELLQESISTLRKEVTGNAQIKTAVYEMMRPAEAPDHPLVEWQDSLTADEKSMLACINAGNFEPTTQFCKIGYQEVQGEVAFSMMHPCISYLLHSYSPFSEFKPTNSGFLKKLNQDYNDYHAKKMFIDVILEKLYLTHERSLHIGKDGCSRNILLT", "soluble on expression in E. coli": "not soluble"}, {"sequence": "MPVVERTTFLAGYSPQQVLDFCLEGANFPKIFPERVTPLGGLDINDLRISVGRQFSFLHWMFGVIPAKWTVVIREVGDRHFVDEMLKGPLRAFRHEHRVEAAEGGTLYTDRVTYRAIGGAPLEWLMVNAYMARIFDARHRNMLRLLSLEHHHHHH", "soluble on expression in E. coli": "soluble"}, {"sequence": "MPWKCYRDYNLESQILKYRTTADVIMKSMYKLEIESLKRELAEYRRGNNGSHSDCKYYDEEAREEVS", "soluble on expression in E. coli": "not soluble"}, {"sequence": "MPYAIDFGTTNTVIARWNEATRQGNLIDLPSLSHPLGDSGPLVPSLLYVENAALGQVAIAREVLDRGRDISTDTRFFKNFKRGIGVAVQGFLPQLDGHTLSLETLGQWYLDKLIRILTEQEGQGPDCLALTVPVDSFESYRHWLSHTCRSWGVEEVRLVDEPTAAALGYGVGDASQILVLDFGGGTVDFSWVQLGDRGQKGRSGFLLKWGGILGGSKAEEKSALAKVLAKAGANLGGSDIDYWISEYFTEAQGLQVSPWIRRLAERLKIALGEAEEATEVYFDDQALESYEFQLRRSDLTEILQQRQFFERLTALWEQVQQTAQRRGLTPANLDAVLVVGGTSQLPMVQDWINAQFPAGKIRNQQPFGAIALGALQIYQGREVQDYLYHSYGVRYWNRRKNSHNWHPIIKNGQTYPMAEPIELTLGASLDNQPSIELIVGELGSSIGATEVYFDGNQLITRVLENQAFTVQPLNDRNGARQIAQLSPPGVPGGDRIKVKFWVDDQRYLRLTVEDLLQQKLLLENQVVAQLRLEHHHHHH", "soluble on expression in E. coli": "not soluble"}, {"sequence": "MPYEMKFKGVYVLAMEDNSSFKGKIEVGDTVTGVDGKSFKSSEELMNYIKAQKVNQKVTVQFIQDGKAKEATGKLIELPTDKKAGIGIGLTDHTLEHHHHHH", "soluble on expression in E. coli": "soluble"}, {"sequence": "MPYLLEMKNITKTFGSVKAIDNVCLRLNAGEIVSLCGENGSGKSTLMKVLCGIYPHGSYEGEIIFAGEEIQASHIRDTERKGIAIIHQELALVKELTVLENIFLGNEITHNGIMDYDLMTLRCQKLLAQVSLSISPDTRVGDLGLGQQQLVEIAKALNKQVRLLILDEPTASLTEQETSILLDIIRDLQQHGIACIYISHKLNEVKAISDTICVIRDGQHIGTRDAAGMSEDDIITMMVGRELTALYPNEPHTTGDEILRIEHLTAWHPVNRHIKRVNDVSFSLKRGEILGIAGLVGAGRTETIQCLFGVWPGQWEGKIYIDGKQVDIRNCQQAIAQGIAMVPEDRKRDGIVPVMAVGKNITLAALNKFTGGISQLDDAAEQKCILESIQQLKVKTSSPDLAIGRLSGGNQQKAILARCLLLNPRILILDEPTRGIDIGAKYEIYKLINQLVQQGIAVIVISSELPEVLGLSDRVLVMHEGKLKANLINHNLTQEQVMEAALRSEHHVEKQSV", "soluble on expression in E. coli": "not soluble"}, {"sequence": "MPYPKKVTIKEVGPRDGLQNEPVWIATEDKITWINQLSRTGLSYIEITSFVHPKWIPALRDAIDVAKGIDREKGVTYAALVPNQRGLENALEGGINEACVFMSASETHNRKNINKSTSESLHILKQVNNDAQKANLTTRAYLSTVFGCPYEKDVPIEQVIRLSEALFEFGISELSLGDTIGAANPAQVETVLEALLARFPANQIALHFHDTRGTALANMVTALQMGITVFDGSAGGLGGCPYAPGSSGNAATEDIVYMLEQMDIKTNVKLEKLLSAAKWIEEKMGKPLPSRNLQVFKSSLEHHHHHH", "soluble on expression in E. coli": "soluble"}, {"sequence": "MPYQQITVNVNDAVAERLADALMEHGALSAAIEDAYAGTQNEQAIFGEPGMPAEQIWQQSKVIALFGEHDEAAAIIQTATQECGLK", "soluble on expression in E. coli": "not soluble"}, {"sequence": "MPYVDRQNRICGFLDIEDNENSGKFLRRYFILDTQANCLLWYMDNPQNLAVGAGAVGSLQLTYISKVSIATPKQKPKTPFCFVINALSQRYFLQANDQKDLKDWVEALNQASKITVPKAGTVPLATEVLKNLTAPPTLEKKPQVAYKTEIIGGVVVQTPISQNGGDGQEGCEPGTHAFLRRSQSYIPTSGCRPSTGPPLIKSGYCVKQGNVRKSWKRRFFALDDFTICYFKCEQDREPLRTIPLKDVLKTHECLVKSGDLLMRDNLFEIITTSRTFYVQADSPEDMHSWIEGIGAAVQALKCHPREPSFSRSISLTRPGSSTLTSAPNSILSRRRPPAEEKRGLCKAPSVASSWQPWTPVPQAEEKPLSVEHAPEDSLFMPNPGESTATGVLASSRVRHRSEPQHPKEKPFVFNLDDENIRTSDV", "soluble on expression in E. coli": "soluble"}, {"sequence": "MQARVKWVEGLTFLGESASGHQILMDGNSGDKAPSPMEMVLMAAGGCSAIDVVSILQKGRQDVVDCEVKLTSERREADTRLFTHINLHFIVTGRDLKDAAVARAVDLSAEKYCSVALMLEKAVNITHSYEVVAA", "soluble on expression in E. coli": "soluble"}, {"sequence": "MQASDRFNINSQLEHLQAKYVGTGHADLSRFEWAVNIQRDSYASYIGHYPMLSYFAIAENESIGRERYNFMQKMLLPCGLPPEREEE", "soluble on expression in E. coli": "soluble"}]}]}
